doi:10.1101/2020.01.05.895227

T1: MBP-Dnmt5(345-747) (Cryptococcus neoformans, UniProt J9VI03 345-747)
T1 sequence: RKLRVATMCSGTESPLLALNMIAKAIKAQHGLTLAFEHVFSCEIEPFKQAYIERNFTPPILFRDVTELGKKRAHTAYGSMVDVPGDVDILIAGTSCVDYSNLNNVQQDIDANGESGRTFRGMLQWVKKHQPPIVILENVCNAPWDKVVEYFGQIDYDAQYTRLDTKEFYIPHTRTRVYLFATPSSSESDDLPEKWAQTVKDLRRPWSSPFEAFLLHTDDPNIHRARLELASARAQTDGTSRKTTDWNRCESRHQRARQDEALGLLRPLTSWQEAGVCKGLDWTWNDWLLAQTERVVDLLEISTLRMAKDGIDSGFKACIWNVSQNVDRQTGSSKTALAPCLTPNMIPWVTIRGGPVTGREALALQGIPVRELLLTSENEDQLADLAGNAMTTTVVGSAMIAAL

T2: MBP-Dnmt5(1-150, W87A, Y90A) (Cryptococcus neoformans, UniProt J9VI03 1-150, W87A;Y90A)
T2 sequence: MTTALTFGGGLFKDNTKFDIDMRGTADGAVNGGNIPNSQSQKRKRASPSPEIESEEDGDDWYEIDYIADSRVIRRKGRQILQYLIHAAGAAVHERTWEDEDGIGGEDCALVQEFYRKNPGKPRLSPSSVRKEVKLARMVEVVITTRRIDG

B1: Unmethylated 60 bp DNA (3 CG), Cy5 (dsDNA)
DNA 1: CATGGCCTAAGCCGGACTGAATGAGCAAGCTTCCGGAGAATTCTGCCGGACTGCAGATGC
DNA 2: GCATCTGCAGTCCGGCAGAATTCTCCGGAAGCTTGCTCATTCAGTCCGGCTTAGGCCATG
B2: Unmethylated 60 bp DNA, one CG, Cy5 (dsDNA)
DNA 1: CATGGCCTAAGCAGGACTGAATGAGCAAGCTTCCGGAGAATTCTGCAGGACTGCAGATGC
DNA 2: GCATCTGCAGTCCTGCAGAATTCTCCGGAAGCTTGCTCATTCAGTCCTGCTTAGGCCATG
B3: Hemimethylated 60 bp DNA (3 CG), Cy5 (dsDNA)
DNA 1: CATGGCCTAAGCCGGACTGAATGAGCAAGCTTCCGGAGAATTCTGCCGGACTGCAGATGC
DNA 2: GCATCTGCAGTCCGGCAGAATTCTCCGGAAGCTTGCTCATTCAGTCCGGCTTAGGCCATG
modifications: 5mC at strand 1 positions 13, 34, 47

How the values were obtained:
Assay in all cases: EMSA
Dnmt5 full-length [1] = target: T3, Dnmt5 full-length (Cryptococcus neoformans, UniProt J9VI03 1-2377)
MBP-Dnmt5(345-747) = target: T1, MBP-Dnmt5(345-747)
Dnmt5 full-length [2] = target: T3, Dnmt5 full-length; remark: listed apart in the source
[3] = target: T2, MBP-Dnmt5(1-150, W87A, Y90A)

Row | Binder | Kd (Dnmt5 full-length [1]) [nM] | Kd (MBP-Dnmt5(345-747)) [nM] | binding signal (Dnmt5 full-length [2]) | binding result [3]
1 | B1 | 20 ± 5 | 7 ± 3 | – | –
2 | B2 | – | – | 1 reference; abasic DNA binds 5-fold tighter | –
3 | B3 | < 1 | 6 ± 2 | – | no binding
